Test results published in the RNAGym collection of RNA variant scans (doi:10.1021/acssynbio.7b00057).

B1: Pistol ribozyme (parent)
chain: GGGUCGUUGUUCCAUAAUCGCGUGGAUAUGGCACGCAAGUUUCUACCGGGCACCGUAAAUGUCCGACUGGAGCCGUUCGGGCGGCUAUAAACAGACCUCAGGCCCGAAGCGUGGCGGCACCUGCCGCCGGUGGUAAAAAAGAUCGGAAGAGCACACGUCU

Variants of: B1
Assay: aptazyme ON/OFF ratio, guanine; higher = stronger switching; co-transcriptional cleavage with and without guanine

| Variant | aptazyme ON/OFF ratio |
| --- | --- |
| U7A G9A U10A U11G C13G | 1.11 |
| U7A G9A U10A U11G C13A | 1.29 |
| U7A G9A U10A U11G C13U | 1.12 |
| U7A C12U C13U | 1.38 |
| U7A C12U C13G | 1.16 |
| U7A C12U C13A | 1.29 |
| U7A G9A U10C C12U C13U | 1.2 |
| U7A G9A U10C C12U C13G | 1.12 |
| U7A G9A U10C C12U C13A | 1.08 |
| U7A G9A C12U C13G | 1.17 |
| U7A G9A C12U C13U | 1.21 |
| U7A G9A C12U C13A | 1.04 |
| U7A G9A U10G C12G C13A | 1.21 |
| U7A G9A U10C U11A C12U C13U | 1.22 |
| U7A G9A U10C U11A C12U C13G | 1.23 |
| U7A G9A U10C U11A C12U C13A | 1.2 |
| U7A G9A U10A U11A C12G C13U | 1.05 |
| U7A G9A U10A U11A C12G C13A | 1.09 |
| U7A G9A U10A U11A C12G C13G | 1.21 |
| U7A G9A U10A C12G C13G | 1.3 |
| U7A G9A U10A C12G C13U | 1.41 |

| Variant | aptazyme ON/OFF ratio |
| --- | --- |
| U7A G9A U10A C12G C13A | 1.25 |
| U7A G9A U10A U11G | 1.3 |
| U7A G9A U10A U11C | 1.07 |
| U7A G9A U10A U11A | 1.34 |
| U7A G9A C12G C13A | 1.12 |
| U7A G9A C12G C13U | 1.17 |
| U7A G9A C12G C13G | 1.24 |
| U7A G9A U10A U11G C12A | 1.1 |
| U7A G9A U10A U11G C12U | 1.17 |
| U7A G9A U10A U11G C12G | 1.13 |
| U7A G9A U10C U11G C12U | 1.29 |
| U7A G9A U10C U11G C12G | 1.3 |
| U7A G9A U10C U11G C12A | 1.04 |
| U7A G9A U10C U11A C12A C13G | 1.05 |
| U7A G9A U10C U11A C12A C13A | 1.2 |
| U7A G9A U10C U11A C12A C13U | 1.19 |
| U7A G9A U10C U11G C13G | 1.19 |
| U7A G9A U10C U11G C13U | 1.25 |
| U7A G9A U10C U11G C13A | 1.22 |
| U7A G9A U10A U11C C12G C13G | 1.42 |
| U7A G9A U10A U11C C12G C13U | 1.2 |

| Variant | aptazyme ON/OFF ratio |
| --- | --- |
| U7A G9A U10A U11C C12G C13A | 1.08 |
| U7A G9A U10A C12A C13G | 1.07 |
| U7A G9A U10A C12A C13U | 1.29 |
| U7A G9A U10A C12A C13A | 1.1 |
| U7A G9A U10C C13G | 1.06 |
| U7A G9A U10C C13A | 1.06 |
| U7A G9A U10C C13U | 1.12 |
| U7A G9A U10A C13A | 1.26 |
| U7A G9A U10A C13U | 1.29 |
| U7A G9A U10A C13G | 1.09 |
| U7A G9A U10A U11A C12U C13G | 1.32 |
| U7A G9A U10A U11A C12U C13U | 1.39 |
| U7A G9A U10A U11A C12U C13A | 1.19 |
| U7A G9A U10C U11G C12A C13G | 1.24 |
| U7A G9A U10C U11G C12A C13U | 1.1 |
| U7A G9A U10C U11G C12A C13A | 1.18 |
| U7A G9A U10C U11C C12G C13A | 1.07 |
| U7A G9A U10C U11C C12G C13U | 1.04 |
| U7A G9A U10C U11C C12G C13G | 1.09 |
| U7A G9A U10C U11A | 1.27 |
| U7A G9A U10C U11G | 1.31 |

| Variant | aptazyme ON/OFF ratio |
| --- | --- |
| U7A G9A U10C U11C | 1.01 |
| U7A G9A C12A | 2.25 |
| U7A G9A C12U | 2.04 |
| U7A G9A C12G | 2.38 |
| U7A G9A U10A U11C C12A | 1.16 |
| U7A G9A U10A U11C C12U | 1.1 |
| U7A G9A U10A U11C C12G | 1.19 |
| U7A G9A U10A U11G C12A C13A | 1.16 |
| U7A G9A U10A U11G C12A C13U | 1.09 |
| U7A G9A U10A U11G C12A C13G | 1.22 |
| U7A G9A U10G | 1.53 |
| U7A G9A U10A | 1.52 |
| U7A G9A U10C | 1.96 |
| U7A G9A U10A U11G C12G C13U | 1.25 |
| U7A G9A U10A U11G C12G C13G | 1.44 |
| U7A G9A U10A U11G C12G C13A | 1.32 |
| U7A C13G | 1.11 |
| U7A C13U | 1.58 |
| U7A C13A | 1.47 |
| U7A G9A U10A C12A | 1.3 |
